We go through ten molecules from patent US7041642B1, “Fluorescent bombesin-like peptides” (PerkinElmer LAS, Inc., priority 1995, dated 2006).

What is called Ki is the equilibrium dissociation constant of an inhibitor or competing ligand from its target.

Assay [1] deals with BB1, BB2, BB3. Briefly: Non-selective radioligand displacement binding, rat cerebral cortex / brain neurons. On the procedure: Referring now to FIG. 4, a fluoresceinyl-NMC peptide with the amino aid sequence […]NH2 (SEQ ID NO:4) was tested to determine its affinity for NMC receptor sites. The fluoresceinyl-NMC peptide compound absorbs light maximally at 494 nm and features an emission spectrum centered around 518 nm. […] The IC50 is related to the binding constant Ki by the formula IC50=Ki (1+FL/Kd), where FL is the concentration of the free labeled ligand and Kd is the dissociation constant for the labeled ligand.
(§1) All experimental results were obtained by displacing radiolabeled bombesin from the designated receptor, except for the results obtained for GRP which used radiolabeled GRP. Other receptors used in binding assays include the NMB receptor, the bombesin-receptor subtype 2 (BB2) and the bombesin receptor subtype 3 (BB3). As mentioned above, the biological activities of fluoresceinyl-NMC as well as fluoresceinyl-GRP compounds were determined in non-selective assay by binding to BB1, BB2 and BB3 expressed by rat brain neurons whereas the biological activities of fluoresceinyl-NMB and [Dphe^6, Ala^11, Phe^13, Nle^14]Bbn(6–14) compounds were determined by using recombinant cells expressing the BB1 (NMB receptor) or BB2 and BB3 receptors respectively.
Determination of IC50 for labeled peptides. […] In order to fully dissolve the peptide, the sample was reconstituted in 20 uL DMSO, vortexing well to ensure that all powder was completely dissolved, and then adding 0.48 mL of double distilled water. The stock solution was aliquoted to avoid repeated freezing and thawing of peptide. Unused aliquots were stored at −20° C. (protected from light) for maximum 24 hr.
Receptor binding was carried out on tissues of rat cortex homogenate for GRP, recombinant cells expressing BB1 (NMB receptor) for NMB, or recombinant cells expressing BB2 and BB3 for [Dphe^6, Ala^11, Phe^13, Nle^14]Bbn(6–14). […]
(§2) Data for native and labeled peptides were analyzed by non-linear curve fitting. […]
On the technique in general: Displacement assays read how much labelled ligand stays bound in the presence of the test substance.

Assay [2] has as its target bombesin 2 receptor (BB2 or GRP receptor), recombinant cells. Kind of assay: radioligand displacement, recombinant cells expressing BB2.
Assay [3] concerns the target bombesin 3 receptor (BB3 or orphan bombesin receptor), recombinant cells. Briefly: radioligand displacement, recombinant cells expressing BB3.
Assay [4] deals with T1, BB1 (NMB receptor) (Homo sapiens, UniProt P28336).
T1 construct: expressed in transfected cells
T1 sequence (P28336 whole entry): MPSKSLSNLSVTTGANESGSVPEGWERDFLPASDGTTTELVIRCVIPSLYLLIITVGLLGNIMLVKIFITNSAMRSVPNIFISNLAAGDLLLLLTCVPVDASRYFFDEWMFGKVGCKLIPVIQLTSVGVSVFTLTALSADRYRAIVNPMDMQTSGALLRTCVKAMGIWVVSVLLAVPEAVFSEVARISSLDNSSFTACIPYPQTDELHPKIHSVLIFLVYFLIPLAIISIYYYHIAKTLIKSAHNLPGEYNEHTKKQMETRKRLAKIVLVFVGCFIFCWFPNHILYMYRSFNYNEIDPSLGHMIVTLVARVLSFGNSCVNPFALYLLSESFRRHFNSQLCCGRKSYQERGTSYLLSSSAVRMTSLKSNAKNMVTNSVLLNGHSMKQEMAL
Briefly: Radioligand displacement binding, recombinant cells expressing BB1 (NMB receptor). On the procedure: as §1
Determination of IC50 for labeled peptides. […] In order to fully dissolve the peptide, the sample was reconstituted in 20 uL DMSO, vortexing well to ensure that all powder was completely dissolved, and then adding 0.48 mL of double distilled water. The stock solution was aliquoted to avoid repeated freezing and thawing of peptide. Unused aliquots were stored at −20° C. (protected from light) for maximum 24 hr. […]
as §2

For assay [5], the target named is bombesin 1 receptor (BB1 or NMB receptor), recombinant cells. Briefly: radioligand displacement, recombinant cells expressing BB1 (NMB receptor).
Assay [6] concerns the target BB1, BB2 and BB3 expressed by rat brain neurons. Kind of assay: radioligand displacement (radiolabeled GRP), rat cortex homogenate, non-selective.
For assay [7] the target is unchanged. Kind of assay: displacement of radiolabeled bombesin, rat cerebral cortex.
Assay [8] shares this target. Briefly: radioligand displacement (radiolabeled bombesin), rat cerebral cortex, non-selective.

Ends that are not written are not given here. fluorescein = fluorescein label (light-emitting moiety) attached to the peptide

Chain of bombesin 3 receptor (BB3 or orphan bombesin receptor), recombinant cells (P32247 whole entry): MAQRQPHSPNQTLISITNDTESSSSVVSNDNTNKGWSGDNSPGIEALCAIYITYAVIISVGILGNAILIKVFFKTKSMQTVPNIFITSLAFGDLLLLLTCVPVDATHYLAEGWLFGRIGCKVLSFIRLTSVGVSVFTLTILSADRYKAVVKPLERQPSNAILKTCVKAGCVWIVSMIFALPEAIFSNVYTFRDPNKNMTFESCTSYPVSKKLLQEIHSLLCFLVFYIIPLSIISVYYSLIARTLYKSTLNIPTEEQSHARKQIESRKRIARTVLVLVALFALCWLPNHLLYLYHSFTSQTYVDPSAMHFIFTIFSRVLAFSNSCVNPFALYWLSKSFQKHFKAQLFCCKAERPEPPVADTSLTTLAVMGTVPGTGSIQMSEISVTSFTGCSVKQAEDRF

On to VPLPAGGGTVLTKMYPRGNHWAVGHLM [GRP], for which the Ki in assay [1] (displacement of radiolabeled GRP, BB1, BB2, BB3, rat cortex homogenate) was 2 nM.

As to “[Dphe^6, Ala^11, Phe^13, Nle^14]Bbn(6-14) (peptide)”, the Ki was 0.17 nM in assay [2] and 23 nM in assay [3].

Turning to `CSCC[C@H](NC(=O)[C@H](Cc1ccccc1)NC(=O)[C@H](Cc1cnc[nH]1)NC(=O)CNC(=O)[C@@H](NC(=O)[C@H](C)NC(=O)[C@H](Cc1c[nH]c2ccccc12)NC(=O)[C@H](CC(C)C)NC(=O)[C@H](CC(N)=O)NC(=O)CN)[C@@H](C)O)C(N)=O` [NMB], the inhibitory constant (Ki) in assay [4] amounted to 0.1 nM.

In assay [1] (displacement of radiolabeled bombesin, BB1, BB2, BB3 of rat brain neurons), “fluoresceinyl-NMC peptide, sequence Gly-Asn-His-Trp-Ala-Val-Gly-His-Leu-Met-NH2 (SEQ ID NO:4), fluorescein at N-terminus (fluorescein-GNHWAVGHLM-NH2; listed as Sus scrofa) [Fluo*-NMC]” showed a Ki of 3.2 nM. In addition, the IC50 in assay [1] (read-out: IC50 (concentration at which 50% of the binding is inhibited), displacement of radiolabeled bombesin, receptors on rat cerebral cortex neurons) is 3.2 nM.

For “fluoresceinyl-[Dphe^6, Ala^11, Phe^13, Nle^14]Bbn(6-14) (peptide)”, the Ki is 0.26 nM in assay [2] and 86 nM in assay [3].

B1: NMB (peptide)
peptide: GNLWATGHFM-NH2
B1: in assay [5], the Ki was determined as 0.1 nM.

B2: GRP (peptide)
peptide: VPLPAGGGTVLTKMYPRGNHWAVGHLM-NH2
As for B2, in assay [6], the Ki came out at 2 nM.

B3: fluoresceinyl-GRP (peptide)
peptide: {fluorescein (carboxylic form)}-VPLPAGGGTVLTKMYPRGNHWAVGHLM-NH2
For the molecule B3, in assay [6], the Ki was found to be 32 nM.

B4: fluoresceinyl-NMC peptide (peptide)
peptide: {fluorescein (carboxylic form)}-GNHWAVGHLM-NH2
In assay [7], B4 gave an IC50 of 3.2 nM. This molecule registered an inhibitory constant (Ki) in assay [8] of 3.2 nM.

B5: fluoresceinyl-NMB (peptide)
peptide: {fluorescein (carboxylic form)}-GNLWATGHFM-NH2
As to B5, the Ki in assay [5] turned out to be 7 nM.
